Results as given in patent publication US8466270B2, “Methods for using artificial polynucleotides and compositions thereof to reduce transgene silencing” (Monsanto Technology LLC, priority 2002, dated 2013).

B1: CP4EPSPS_AT: Artificial polynucleotide encoding the CP4EPSPS protein using the Arabidopsis codon usage table (nucleic acid, listed as Agrobacterium tumefaciens)
DNA: ATGCTTCATGGAGCTTCATCTAGGCCAGCTACTGCCAGGAAGTCTAGCGGGCTCAGTGGCACCGTGCGCATCCCTGGCGATAAAAGTATTTCACACAGGAGCTTCATGTTCGGAGGACTTGCTAGTGGAGAGACGAGAATCACTGGTTTGCTTGAGGGCGAAGATGTTATCAACACCGGTAAGGCGATGCAAGCAATGGGTGCCAGAATCCGAAAAGAGGGCGATACGTGGATCATCGACGGTGTTGGTAACGGAGGATTGCTCGCTCCCGAAGCGCCACTTGACTTTGGGAACGCAGCTACGGGGTGCCGTCTTACTATGGGACTGGTAGGCGTGTATGACTTTGACTCTACCTTCATCGGTGACGCGAGCCTCACTAAGAGACCAATGGGACGAGTGCTGAATCCCCTGAGGGAGATGGGTGTCCAGGTGAAATCTGAGGATGGTGATCGTCTTCCGGTTACTCTGCGAGGCCCCAAGACCCCCACGCCAATCACGTACAGGGTTCCGATGGCGTCAGCACAGGTCAAGTCAGCGGTACTCCTGGCGGGCCTCAACACACCTGGAATCACAACCGTGATTGAACCCATCATGACTAGAGACCACACGGAGAAGATGTTGCAGGGTTTCGGCGCTAATCTAACGGTCGAAACCGACGCCGACGGCGTGAGGACAATCCGCTTGGAGGGCAGAGGTAAACTGACTGGCCAAGTCATCGATGTGCCTGGAGATCCCTCGTCCACAGCGTTTCCCCTCGTAGCTGCGTTGCTCGTCCCTGGATCTGATGTGACGATCCTGAATGTCCTCATGAATCCAACTAGAACCGGCCTCATCCTCACATTGCAGGAGATGGGTGCTGACATCGAGGTTATCAATCCTAGGTTGGCAGGTGGAGAGGATGTGGCCGATCTGCGCGTGCGTTCTAGTACACTCAAAGGCGTGACCGTCCCTGAGGATCGCGCTCCATCCATGATCGACGAGTACCCCATTCTCGCCGTTGCTGCTGCGTTTGCCGAGGGCGCAACTGTAATGAACGGCCTTGAGGAGTTGAGGGTTAAGGAGAGTGACAGGCTGTCCGCGGTGGCGAATGGCCTGAAGCTAAACGGCGTGGACTGCGACGAAGGTGAAACGTCCCTTGTAGTCCGTGGTCGCCCAGACGGGAAGGGGTTGGGGAATGCTTCGGGAGCTGCTGTGGCGACGCACCTTGATCATAGAATCGCCATGTCATTTCTGGTGATGGGACTTGTCTCCGAGAATCCGGTGACCGTTGACGATGCTACCATGATCGCCACCTCCTTTCCTGAGTTCATGGACCTCATGGCAGGCTTGGGGGCCAAGATCGAGCTGTCTGATACTAAGGCCGCTTGA
B2: CP4EPSPS_ZM: Artificial polynucleotide encoding the CP4EPSPS protein using the Zea mays codon usage table (nucleic acid, listed as Agrobacterium tumefaciens)
DNA: ATGCTACACGGTGCAAGCAGCCGGCCGGCAACCGCTCGCAAATCTTCCGGCCTTTCGGGAACGGTCAGGATTCCGGGCGATAAGTCCATATCCCACCGGTCGTTCATGTTCGGCGGTCTTGCCAGCGGTGAGACGCGCATCACGGGCCTGCTTGAAGGTGAGGACGTGATCAATACCGGGAAGGCCATGCAGGCTATGGGAGCGCGTATCCGCAAGGAAGGTGACACATGGATCATTGACGGCGTTGGGAATGGCGGTCTGCTCGCCCCTGAGGCCCCTCTCGACTTCGGCAATGCGGCGACGGGCTGCAGGCTCACTATGGGACTGGTCGGGGTGTACGACTTCGATAGCACGTTCATCGGAGACGCCTCGCTCACAAAGCGCCCAATGGGCCGCGTTCTGAACCCGTTGCGCGAGATGGGCGTACAGGTCAAATCCGAGGATGGTGACCGTTTGCCCGTTACGCTGCGCGGGCCGAAGACGCCTACCCCGATTACCTACCGCGTGCCAATGGCATCCGCCCAGGTCAAGTCAGCCGTGCTCCTCGCCGGACTGAACACTCCGGGCATCACCACGGTGATCGAGCCCATCATGACCAGGGATCATACCGAAAAGATGCTTCAGGGGTTTGGCGCCAACCTGACGGTCGAGACGGACGCTGACGGCGTCAGGACCATCCGCCTTGAGGGCAGGGGTAAACTGACTGGCCAAGTCATCGATGTTCCGGGAGACCCGTCGTCCACGGCCTTCCCGTTGGTTGCGGCGCTGCTCGTGCCGGGGAGTGACGTGACCATCCTGAACGTCCTCATGAACCCGACCAGGACCGGCCTGATCCTCACGCTTCAGGAGATGGGAGCCGACATCGAGGTGATCAACCCGCGCCTGGCAGGCGGTGAAGACGTTGCGGATCTGCGCGTGCGCTCCTCTACCCTGAAGGGCGTGACGGTCCCGGAAGATCGCGCGCCGTCCATGATAGACGAGTATCCTATTCTGGCCGTCGCCGCTGCGTTCGCCGAAGGGGCCACGGTCATGAACGGTCTTGAGGAACTCCGCGTGAAGGAATCGGATCGCCTGTCGGCGGTGGCCAATGGCCTGAAGCTCAACGGTGTTGACTGCGACGAGGGTGAGACCTCACTCGTGGTCCGTGGCCGGCCTGATGGCAAGGGCCTCGGCAACGCCAGTGGAGCGGCCGTCGCCACGCACCTCGATCATCGCATCGCGATGTCCTTCTTGGTGATGGGTCTCGTCTCAGAGAACCCGGTGACCGTCGATGACGCCACGATGATAGCGACGAGCTTCCCAGAGTTCATGGATCTGATGGCGGGCCTCGGGGCCAAGATCGAACTGTCTGACACGAAGGCCGCTTGA

Columns and labels:
transgenic cotton plants [1] = assay: CP4EPSPS ELISA, enzyme level in R0 cotton lines; format: in vivo; conditions: relative to pMON20999 expression cassette
Method: (§1) Three plasmid constructs are evaluated in transgenic cotton plants (Table 21). The control construct (pMON20999) contains P-FMV/CP4EPSPS_Syn this expression cassette is contained in the commercially available glyphosate tolerant cotton line 1445 (Roundup Ready® cotton, Monsanto Co., St. Louis, Mo.). The plasmid constructs, pMON59313 and pMON59396 containing the CP4EPSPS_AT and CP4EPSPS_ZM polynucleotides, respectively, are assayed for transformation efficiency and CP4EPSPS enzyme levels relative to the commercial glyphosate tolerant expression cassette. About fifty transgenic cotton lines are evaluated for each construct.

transgenic cotton plants [2] = assay: Cotton transformation (transformation efficiency, insert number); format: cell-based; conditions: relative to pMON20999
Method: as §1

CP4EPSPS polynucleotide = assay: PCR detection of artificial CP4EPSPS polynucleotides in transgenic plants; parameters: species or system corn; conditions: amplicon size obtained with the primer pair specific for the gene; second figure in brackets
Description: A DNA detection method (polymerase chain reaction, PCR) is designed to detect the artificial CP4EPSPS polynucleotides in transgenic plants. The unique sets of DNA primers shown in Table 26 are designed to amplify a specific CP4EPSPS polynucleotide and to provide distinctly sized amplicons. The amplicons differ sufficiently in polynucleotide length among the various CP4EPSPS polynucleotides to make easy separation of the amplicons by standard agarose gel electrophoresis. The presence of more than one of the artificial polynucleotides can be detected in a plant by using a multiplex PCR method.
DNA primer pairs (Table 26) are used to produce an amplicon diagnostic for a specified CP4EPSPS polynucleotide contained in a transgenic plant. These primer pairs include, but are not limited to SEQ ID NO:24 and SEQ ID NO:25 for the CP4EPSPS_AT polynucleotide; SEQ ID NO:26 and SEQ ID NO:27 for the CP4EPSPS_ZM; SEQ ID NO:28 and SEQ ID NO:29 for CP4EPSPS_Nat and SEQ ID NO:30 and SEQ ID NO:31 CP4EPSPS_Syn polynucleotide molecule. In addition to these primer pairs, any primer pair derived from SEQ ID NO:17 or SEQ ID NO:18 that when used in a DNA amplification reaction produces a DNA amplicon diagnostic for the respective CP4EPSPS polynucleotide is an aspect of the present invention. […]

[3] = tested on: transgenic soybean plants; assay: CP4EPSPS enzyme level in transgenic soybean plants; format: in vivo
Method: Constructs containing the artificial CP4EPSPS polynucleotides, CP4EPSPS_AT and CP4EPSPS_ZM are evaluated in soybean (Table 22). The plasmid constructs all contain the P-FMV promoter to drive expression of the new CP4EPSPS polynucleotides and are compared to the P-FMV/CP4EPSPS_Syn contained in pMON20999. About 25 to 30 transgenic soybean plants are produced for each construct. The transformation efficiency and CP4EPSPS enzyme, levels are measured.

Wheat plants = assay: CP4EPSPS enzyme expression in wheat leaves by ELISA; format: in vivo
Description: Wheat plants transformed with the new CP4EPSPS polynucleotides are compared for transformation efficiency and CP4EPSPS enzyme expression determined by ELISA (Table 25). […] The average expression of CP4EPSPS in leaves from wheat plants containing the CP4EPSPS_ZM polynucleotide is about 64% of that found in glyphosate resistant wheat that contains a double cassette construct, pMON30139: P-e35S/1-Hsp70/CP4EPSPS_Nat and P-OsAct1/I-OsAct1/CP4EPSPS_Nat (WO/0022704).

Molecule	expression level of the CP4EPSPS enzyme (in words) (transgenic cotton plants [1])	percentage of plants with a single insert (transgenic cotton plants [2])	PCR product (bps) (CP4EPSPS polynucleotide)	expression level of CP4EPSPS protein (in words) [3]	CP4EPSPS enzyme expression relative to CP4EPSPS_AT (Wheat plants; wheat)	CP4 Exp. (%) CP4EPSPS expression (Wheat plants; wheat leaves, relative to pMON30139 double cassette wheat, ELISA)
B1	increase in expression level	higher percentage of plants with a single insert	938 (940) bps			
B2			595 (600) bps	surprisingly high expression level	at least seven times higher	about 64%
